The assay addresses T1, glucose-6-phosphate dehydrogenase (G6PD), mouse heart (mouse, UniProt Q00612 2-515).
T1 construct: Endogenous protein immunoprecipitated or detected with rabbit anti-G6PD; also called G6PDH
The assay is described as follows: co-immunoprecipitation (anti-G6PD IP, anti-CryAB blot) from NTg mouse heart homogenate.

This note sets out measurements from patent US20120030779A1 (UNIVERSITY OF UTAH RESEARCH FOUNDTION, published 2012).

T1 sequence (Q00612 2-515 limits assumed): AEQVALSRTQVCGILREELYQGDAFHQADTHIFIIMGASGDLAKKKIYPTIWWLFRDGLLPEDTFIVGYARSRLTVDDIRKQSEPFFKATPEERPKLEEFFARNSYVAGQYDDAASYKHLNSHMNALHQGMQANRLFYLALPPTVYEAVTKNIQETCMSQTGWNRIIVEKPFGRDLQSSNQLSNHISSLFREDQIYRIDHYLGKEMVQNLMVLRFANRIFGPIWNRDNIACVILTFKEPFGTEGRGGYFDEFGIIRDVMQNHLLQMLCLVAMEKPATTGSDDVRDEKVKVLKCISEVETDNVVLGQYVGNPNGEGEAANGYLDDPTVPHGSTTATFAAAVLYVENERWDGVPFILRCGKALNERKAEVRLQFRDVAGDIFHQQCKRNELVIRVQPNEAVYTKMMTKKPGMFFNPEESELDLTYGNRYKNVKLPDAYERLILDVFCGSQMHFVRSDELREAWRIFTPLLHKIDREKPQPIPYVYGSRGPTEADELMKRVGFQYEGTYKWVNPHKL
Description: Immunoprecipitation and Immunoblotting: Heart homogenates were first prepared in TBS (10 mM Tris, 150 mM NaCl, pH 7.4) and centrifuged at 10,000 g for 15 minutes at 4° C.

B1: mouse alphaB-crystallin (endogenous CryAB of non-transgenic mouse heart) (other, UniProt P23927 1-175, looked up)
chain: MDIAIHHPWIRRPFFPFHSPSRLFDQFFGEHLLESDLFSTATSLSPFYLRPPSFLRAPSWIDTGLSEMRLEKDRFSVNLDVKHFSPEELKVKVLGDVIEVHGKHEERQDEHGFISREFHRKYRIPADVDPLTITSSLSSDGVLTVNGPRKQVSGPERTIPITREEKPAVAAAPKK
notes: Only CryAB present in NTg heart extracts; also called CryAB (NTg)
Turning to B1, the binding result is “no binding”.
